Assay results taken from the DeepSol protein solubility set.

Assay: soluble on expression in E. coli; label from the status in PepcDB or PDB records

Soluble on expression in E. coli, soluble:
MASVPENQAPKAIFTFSPEDPVTDENVVFNASNSIDEDGTIAYYVWDFGDGYEGTSTTPTITYKYKNPGTYKVKLIVTDNQGASSSFTATIKVTSATGDNSKFNFEDGTLGGFTTSGTNATGVVVNTTEKAFKGERGLKWTVTSEGEGTAELKLDGGTIVVPGTTMTFRIWIPSGAPIAAIQPYIMPHTPDWSEVLWNSTWKGYTMVKTDDWNEITLTLPEDVDPTWPQQMGIQVQTIDEGEFTIYVDAIDWLEHHHHHH
MEQLNKMAPKDVRALIREGKINGPTAGMSGGYAQANLVVLKKDLAFDFLLFCQRNQKPCPVLDVTEAGSPVPSLLRRMLISRTDFPKYRIYRHGILTEEVSDITPYWEDDFVGFLIGCSFSFEQALINNGIAVRHIDEGTNVSMYKTNIDCFPVGAFHGQMVVSMRPVPERLAVRAAQVTSRFPAVHGGPIHIGNPGAIGIRDLGKPDFGDAVSIRDGEVPVFWACGVTPQAVAMNVKPEMVITHAPGHMLITDIRDESLAVLLEHHHHHH
MSLINFGIIGAGNIANRFADSLSHFKDANLYAVACRGIEKAAAFQRKHPCQLIYDDYDELLSNKDIDIVYIAVPHGFHYLWISKALKKGKAVLCEKPATLNAEQMKSVQKLAEAKNIFFMEAMKSRFTPAYQEIKTIINNGEIGKIISIDSSFCREISKKTATYHFQPIQGGCLLDIGIYNVALTEDFAKTLPKVEVLENKMDISGVESYTKAKLLFPNLSATIECAFDRNKQTEATIKGEKGQIEIKNFHRAESFIVKTSSGTKNYHIAYEQDDFHGEIAHVIQCYGKNKTESNNMPISDSVNCALIIEKIKNQIPELAEGHHHHHH
MHLYSSDFPLMMDEKELYEKWMRTVEMLKAEGIIRSKEVERAFLKYPRYLSVEDKYKKYAHIDEPLPIPAGQTVSAPHMVAIMLEIANLKPGMNILEVGTGSGWNAALISEIVKTDVYTIERIPELVEFAKRNLERAGVKNVHVILGDGSKGFPPKAPYDVIIVTAGAPKIPEPLIEQLKIGGKLIIPVGSYHLWQELLEVRKTKDGIKIKNHGGVAFVPLIGEYGWKEHHHHHH
MSLKRIRPLDPDVVNKIAAGEIIVAPMHALKELIENAVDAGSTSIEVLVKDGGMKLLQITDNGHGIDRDDLPILCERFTTSKLKQFEDLSSIGTYGFRGEALASISHIAHLTVTTKTAGSSCAWRAHYSDGKLVPPKPGQSAEPKATAGRGGTQITVEDLFYNVPTRRRAFRSASEEYAKILDVVGRYAVHCSGVAFSCRKHGESGAGISTPAAANTTDRIRQIHGSAVANELVEFQVEDSKLGFRSSGLVTNANYHVKRTVIMLFINHRSVESTAIKRAVEQTYSSFLPKGGHPFVYIDLEIEPHRVDVNVHPTKREVNFLNEDDIIESICSEIRSKLAQEGHHHHHH
MRPVFPLILSAVLFLSCFFGARQTEASASKRAIDANQIVNRMSLDEKLGQMLMPDFRNWQKEGESSPQALTKMNDEVASLVKKYQFGGIILFAENVKTTKQTVQLTDDYQKASPKIPLMLSIDQEGGIVTRLGEGTNFPGNMALGAARSRINAYQTGSIIGKELSALGINTDFSPVVDINNNPDNPVIGVRSFSSNRELTSRLGLYTMKGLQRQDIASALKHFPGHGDTDVDSHYGLPLVSHGQERLREVELYPFQKAIDAGADMVMTAHVQFPAFDDTTYKSKLDGSDILVPATLSKKVMTGLLRQEMGFNGVIVTDALNMKAIADHFGQEEAVVMAVKAGVDIALMPASVTSLKEEQKFARVIQALKEAVKNGDIPEQQINNSVERIISLKIKRGMYPARNSDSTKEKIAKAKKIVGSKQHLKAEKKLAEKAVTVLKNEQHTLPFKPKKGSRILIVAPYEEQTASIEQTIHDLIKRKKIKPVSLSKMNFASQVFKTEHEKQVKEADYIITGSYVVKNDPVVNDGVIDDTISDSSKWATVFPRAVMKAALQHNKPFVLMSLRNPYDAANFEEAKALIAVYGFKGYANGRYLQPNIPAGVMAIFGQAKPKGTLPVDIPSVTKPGNTLYPLGYGLNIKTGRPL

Soluble on expression in E. coli, not soluble:
MGSDKIHHHHHHMRVAIIGMGTAGVSVLRELVKHPKFNQLDIDLYDDKVNMGQGVPFQNDSSELLINMPSKKMSLNLDDETEFWKWYKQQTDFNFDEPAYLPRFVFGHYMKSYLSMFTKKYPNISTNYNKVQEIYTNSNIDETNLTYYICTTNSEQSWQAYDYVFLTCGTFAYHDPYNLKGKKGYIATPYPTYNTLDEVNELDDIAIIGTGLASLDVVRYVAAHHPKLPITMTSRSAHLPSVRGTMIDVTFKYLTKDKLNDIKKHHFGNAPLDTLVSLFLKECAEYDIDFKKLVYRRTGNHIADLKYDLARPTEMGIFQSMIEHLKENLNWIWNSLSIEDQHQFNQKYSKMIQLNSNPMPPRTAELIIELIENKSLILKKDLEDVKHDGKLYYFSYKNQESVDIYNVVINATGAKSHLNELDQDDQLIKNLENRQIVQAHPMGGIQIIPETNQVISPRFGTLTNMIAIGQMTNGVNKLRNGVKMIVEQVAHKVSQLYDALESNEQQQRSDNQ
MGSDKIHHHHHHMADLCVNLVPLFDALPQDEKMQIEKLVQHKNYQKGEVIIDPTINDNLVIVADGNAKQYTLDEDGYENVLQILHTGDYIGEDWLFGQKNINNYVEATEHSEICLLKRQDLLKLMHKQPELSIRLLELSIVKVSEMQKQIHLMALPKVEDRLLKYLQTYADEIGKNNFTLPLKMKDLALYLGTTPETLSRKFALLEKQGQLKRQLRRIELFEN
MGSDKIHHHHHHDAVRTYYAKAISANEKTNSVCMFVKEAEKWAMDWDEKAKDPQFQKPPLFGLPMSLKECVPLEGYDQTRGFVQDTFRPTETDGVLVQQLKKLGAIPYVQTNVPQSLLSYNCSNPVYGTTNHPMDKTRTSGGSSGGESALISADGSLLGIGGDVGGSIRIPCAYTGTTGIKPSHLRFSHRGVCGSVPGRPLINSNDGPMSTRVETNVDFLRTVWADTWITEQDPYVPPVTWNEEAYKSDKKLKIGYYVDDGWFTPTPVCQRAVMEAKQILEDSGHTLVPFRPPRVPEVLRMFLRAVCVDAGTFLSKKLMNDIIDPLLYTQVVLWMVPVPIQRFLSSIIKVFFPRLGNLMDAMTLSTVELRNTYADIEAYRSEMAGLMVDQKIDALLCPVTVSPALPHVSPSKLFAGTSYTGIFNLLDYAAGSVNVTHVTKQDELDLEDYEESDPWYALAKKGSRGTIGFPIGVQVATPPYKEETCLRIMREIERGVTGK
MGSDKIHHHHHHMGMNQISQDQIGQARILVVGDMMLDRYWFGDVERISPEAPVPVVQIKRSDERLGGAANVARNSAALGAQVGMLGVVGDDEPGRTIESLLSACKVQPYLHRDASVNTTIKLRVLAHQQQLLRVDFENPPTHEVLLSVLEGFQELVKQYEVLVLSDYGKGGLTHVGRMVEAGRAAGRMVLVDPKGDDYSRYRGATLITPNRAEIRRVVGAWKSEQDLTARAQNLRRDLQLEALLLTRSEEGMTLYTEAEVLHVSAQAREVYDVSGAGDTVIATLATMLAAGVSLKQAVQFANRAGGIVVGKLGTAVVSYPELFGAAG
MDDATEQEVFNRMQMTQFEEKRFELVVIRAEDTVVVEPLRQRETCPKCHQILSSELSRLWHQFVHMDAYNGFLDGKFQIQLPDFEFVIPCPFSTCSLLFLDLIDARFHYLLEHQSCQLFCCGVRFSDYKTALEHLQGTGSVETEAWDQQKHFLKPVYICNCCNRTWSSRNEYVAHLHGRDHMCPDPVCKYIFETNEKCIRHFFEQHYKHLFLDSRHLLLNYKYFLRYQEKQEERAYGLYVCTTCQRRFRDNKGFQSHVASQNCEFFDRKFFVQVIACKCGHQFKYCYYQRDVLLRNLPVLREAMEHVEREAPFNNMPEDVCNIYRSIIVVIIDVNQRLINEKFTNYQRTSPLKHSSFTPRQMAKLLLEVVDYFWKIM
KHLPQILCEAMTREAETMAMPDPKLPEEINRTFMQTYADVEQLVPPAKVDRHGSVCIYLPSPASSEEAEANLSWEEQILQDLPRFIIGLQKRGYAPSDIAILVRKTYQAREIARAMLSYQPEPDEEDYPLIPMSDESLSLSGAASIRFLSNLLKFISRPQSDALRQIAYLSYEELRKEKGLAPTEEGNFSAAELAEFANLRRRSLYELAEGLVSFFHSYLPEREMPYLIAWLDLINDFGHERSADLHSFLQWWDETGHAKSRISSAPNSQAVTLMTIHKAKGLGFRVVLIPFLDWNLDDEAAHRHILWCKIDPARSPFNILPVVPIRYKKEMAQTMFATDYFRERADILLDNLNLLYVATTRAKDEMHLWLHPSQKPESLSTVGDLIHLALASLDENKTESDMYCWGSPVISARQKTTDHPSSGLPFTLPKGSLSAVADRLAIRPEGSEFYRRHKPLYHGHVMHRILADIVLAKDIEPALERYVSGGIVTRDEAIELVDRLSVVTSDSRLSRWFDGSGRVLNEQDILLPEGEQRRPDRIILYDDHTDIVDYKFGAVRKVHHAQMENYIRLLVSMGYPSVRGYLWYLPNNEIVGVRSVRGITRSKGEERKEGKGERGIERKAK
MSSTPSLSHSPAELYRAWQDLRAERPQLRARDAAALLQVSEGELVASRVGIDAVRLRPDWAALLPALGELGPIMALTRNEHCVHERKGPYREVTVSANGQMGLVVSPDIDLRLFLGGWNAVFAIAEETARGTQRSIQVFDQQGVAVHKVFLAEASDVRAWEPLVERLRAAEQDAVLALHEPRAPAAALVDAQIDAAALREGWAALKDTHHFHALLKKHGAQRTQALRLAGGEWAERLDNGDLAKLFEAAAESGLPIMVFVGNAHCIQIHTGPVCNLKWLDDWFNVLDPEFNLHLKTTGIAELWRVRKPSTDGIVTSWEAFDADGELIVQLFGARKPGEPERDDWRELAESFKAL
TTFENKKVLVLGLARSGEAAARLLAKLGAIVTVNDGKPFDENPTAQSLLEEGIKVVCGSHPLELLDEDFCYMIKNPGIPYNNPMVKKALEKQIPVL
MALAPAAGCLFDDDNSFTYDVTWYCGMDECTRTEEVQRYDRARQDYSTLTITSSVDDTLFTDGIIAVSNEVPREDCRLVHGLNFLGQDIEPARFCYTPDGFELRVTIPGDGDENSTTWLLRTN
MGHHHHHHSHMLSPERLALPDYEYLAQRHVLTYMEDAVCQLLENREDISQYGIARFFTEYFNSVCQGTHILFREFSFVQATPHNRVSFLRAFWRCFRTVGKNGDLLTMKEYHCLLQLLCPDFPLELTQKAARIVLMDDAMDCLMSFSDFLFAFQIQFYYSEFLDSVAAIYEDLLSGKNPNTVIVPTSSSGQHRQRPALGGAGTLEGVEASLFYQCLENLCDRHKYSCPPPALVKEALSNVQRLTFYGFLMALSKHRGINQALGALPDKGDLMHDPAMDEELERLLAQVPGLVNSVTASPEASCLPSRTPPRVGSPWRPLHHSRKVDGESDGSTEETDESET
MGSDKIHHHHHHMQPDVRHSPKEAFEFAANNGFTHVEILMDHPLYSLENLSFAEVIELKWSYDLDLLIHAPATSTNFISISNEMRKASYKEMSKVCYFAEKCGAEVVTFHIGWNPAFINNGNFYFNKSLFDRHNESVLLNEFLPFVKTCPVQLALENTIMIEDGLERALNEIMGKTTLGLTIDVGHYNIRENPFFLKNFDRVVNMHLHDNDGTADQHLALGRGTVDLSKFNLNRYTGFLTIETREEKSIIESRDYLMRVIV
MAHHHHHHMGANGSKTASSSSAVPAATTTTGDNKGTVNRWYGAVSDASDADLGLAPDVSLSSDISTPEENAAKRKAYAHLQSPYARHQLAASMKGRGSSGNNGAEASATAHVNLIEQIYNEDFETIDHIQALRLPPMVSQQLKNTVRSEAERRCAEVEKTMARCLQDKMWTSWKCQKERDTYYHCVEEIEQRNLRPDPTNPHWVDMLTSFRWKYNLGVFHGEIIGRNNIMKQIWREHYPDRELPHPWVKDA
MTIKTGNIRTNSLAEIYRNSPVFQNLRNPDKYKGKCGVCEFRYVCGGSRSRAYAMTGGLYGKMAGDPLEHHHHHH
